How the values were obtained:
HeLa Kyoto [1] = assay: solubility in G1/S (NP-40 vs SDS abundance) (log2 ratio); higher = more soluble; conditions: cell cycle stage: G1/S
HeLa Kyoto [2] = assay: melting temperature (median over replicates), in situ; higher = more thermally stable
HeLa Kyoto [3] = assay: solubility change mitosis vs G1/S (difference of NP-40 vs SDS log2 ratios) (log2 ratio difference); higher = more soluble in mitosis
HeLa Kyoto [4] = assay: thermal stability score vs G1/S (z-score of summed log2 fold changes over temperatures); higher = more thermally stable than in G1/S
[5] = cell cycle stage: early G1 (4.5 h after nocodazole release)
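Wherever melting temperature (median over replicates), in situ is given: HeLa Kyoto cells synchronized by double thymidine or nocodazole block, proteins quantified by TMT10plex mass spectrometry, three independent biological replicates.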
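Wherever solubility change mitosis vs G1/S (difference of NP-40 vs SDS log2 ratios) is given: synchronized HeLa Kyoto cells (double thymidine block for G1/S, nocodazole release for mitosis), protein amounts in NP-40 versus SDS lysates quantified by mass spectrometry, three biological replicates.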
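Wherever solubility in G1/S (NP-40 vs SDS abundance) is given: HeLa Kyoto cells arrested at G1/S by double thymidine block, proteins quantified by TMT10plex mass spectrometry in mild NP-40 versus SDS extracts, three biological replicates.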
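Wherever thermal stability score vs G1/S (z-score of summed log2 fold changes over temperatures) is given: synchronized HeLa Kyoto cells, proteins quantified by TMT10plex mass spectrometry, three biological replicates, mitosis taken 0.5 h after nocodazole release, G1/S directly after double thymidine block.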

MALVASVRVPARVLLRAGARLPGAALGRTERAAGGGDGARRFGSQRVLVEPDAGAGVAVMKFKNPPVNSLSLEFLTELVISLEKLENDKSFRGVILTSDRPGVFSAGLDLTEMCGRSPAHYAGYWKAVQELWLRLYQSNLVLVSAINGACPAGGCLVALTCDYRILADNPRYCIGLNETQLGIIAPFWLKDTLENTIGHRAAERALQLGLLFPPAEALQVGIVDQVVPEEQVQSTALSAIAQWMAIPDHARQLTKAMMRKATASRLVTQRDADVQNFVSFISKDSIQKSLQMYLERLKEEKG [ECI1]
solubility in G1/S (log2) (HeLa Kyoto [1]): 0.58 | melting temperature (HeLa Kyoto [2]; cell cycle stage: G1/S): 56.8 °C | melting temperature (HeLa Kyoto [2]; cell cycle stage: mitosis): 58.4 °C | solubility change mitosis (log2) (HeLa Kyoto [3]): 0.043 | thermal stability score (HeLa Kyoto [4]; [5]): -0.579 | thermal stability score (HeLa Kyoto [4]; cell cycle stage: mitosis): -2.1

MVLLRVLILLLSWAAGMGGQYGNPLNKYIRHYEGLSYNVDSLHQKHQRAKRAVSHEDQFLRLDFHAHGRHFNLRMKRDTSLFSDEFKVETSNKVLDYDTSHIYTGHIYGEEGSFSHGSVIDGRFEGFIQTRGGTFYVEPAERYIKDRTLPFHSVIYHEDDINYPHKYGPQGGCADHSVFERMRKYQMTGVEEVTQIPQEEHAANGPELLRKKRTTSAEKNTCQLYIQTDHLFFKYYGTREAVIAQISSHVKAIDTIYQTTDFSGIRNISFMVKRIRINTTADEKDPTNPFRFPNIGVEKFLELNSEQNHDDYCLAYVFTDRDFDDGVLGLAWVGAPSGSSGGICEKSKLYSDGKKKSLNTGIITVQNYGSHVPPKVSHITFAHEVGHNFGSPHDSGTECTPGESKNLGQKENGNYIMYARATSGDKLNNNKFSLCSIRNISQVLEKKRNNCFVESGQPICGNGMVEQGEECDCGYSDQCKDECCFDANQPEGRKCKLKPGKQCSPSQGPCCTAQCAFKSKSEKCRDDSDCAREGICNGFTALCPASDPKPNFTDCNRHTQVCINGQCAGSICEKYGLEECTCASSDGKDDKELCHVCCMKKMDPSTCASTGSVQWSRHFSGRTITLQPGSPCNDFRGYCDVFMRCRLVDADGPLARLKKAIFSPELYENIAEWIVAHWWAVLLMGIALIMLMAGFIKICSVHTPSSNPKLPPPKPLPGTLKRRRPPQPIQQPQRQRPRESYQMGHMRR [ADAM10]
solubility in G1/S (log2) (HeLa Kyoto [1]): -0.0721 | melting temperature (HeLa Kyoto [2]; cell cycle stage: G1/S): 53.3 °C | melting temperature (HeLa Kyoto [2]; cell cycle stage: mitosis): 53.9 °C | solubility change mitosis (log2) (HeLa Kyoto [3]): -0.0492 | thermal stability score (HeLa Kyoto [4]; [5]): 0.749 | thermal stability score (HeLa Kyoto [4]; cell cycle stage: mitosis): 1.37

MSVDMNSQGSDSNEEDYDPNCEEEEEEEEDDPGDIEDYYVGVASDVEQQGADAFDPEEYQFTCLTYKESEGALNEHMTSLASVLKVSHSVAKLILVNFHWQVSEILDRYKSNSAQLLVEARVQPNPSKHVPTSHPPHHCAVCMQFVRKENLLSLACQHQFCRSCWEQHCSVLVKDGVGVGVSCMAQDCPLRTPEDFVFPLLPNEELREKYRRYLFRDYVESHYQLQLCPGADCPMVIRVQEPRARRVQCNRCNEVFCFKCRQMYHAPTDCATIRKWLTKCADDSETANYISAHTKDCPKCNICIEKNGGCNHMQCSKCKHDFCWMCLGDWKTHGSEYYECSRYKENPDIVNQSQQAQAREALKKYLFYFERWENHNKSLQLEAQTYQRIHEKIQERVMNNLGTWIDWQYLQNAAKLLAKCRYTLQYTYPYAYYMESGPRKKLFEYQQAQLEAEIENLSWKVERADSYDRGDLENQMHIAEQRRRTLLKDFHDT [ARIH2]
solubility in G1/S (log2) (HeLa Kyoto [1]): -0.242 | melting temperature (HeLa Kyoto [2]; cell cycle stage: G1/S): 51.8 °C | melting temperature (HeLa Kyoto [2]; cell cycle stage: mitosis): 52.3 °C | solubility change mitosis (log2) (HeLa Kyoto [3]): -0.151 | thermal stability score (HeLa Kyoto [4]; [5]): 0.643 | thermal stability score (HeLa Kyoto [4]; cell cycle stage: mitosis): -0.0869

CC2D1A
solubility in G1/S (log2) (HeLa Kyoto [1]): 0.298 | melting temperature (HeLa Kyoto [2]; cell cycle stage: G1/S): 49.7 °C | melting temperature (HeLa Kyoto [2]; cell cycle stage: mitosis): 49.6 °C | solubility change mitosis (log2) (HeLa Kyoto [3]): -0.0691 | thermal stability score (HeLa Kyoto [4]; [5]): 0.931 | thermal stability score (HeLa Kyoto [4]; cell cycle stage: mitosis): 0.615

MAASALYACTKCTQRYPFEELSQGQQLCKECRIAHPIVKCTYCRSEFQQESKTNTICKKCAQNVKQFGTPKPCQYCNIIAAFIGTKCQRCTNSEKKYGPPQTCEQCKQQCAFDRKEEGRRKVDGKLLCWLCTLSYKRVLQKTKEQRKSLGSSHSNSSSSSLTEKDQHHPKHHHHHHHHHHRHSSSHHKISNLSPEEEQGLWKQSHKSSATIQNETPKKKPKLESKPSNGDSSSINQSADSGGTDNFVLISQLKEEVMSLKRLLQQRDQTILEKDKKLTELKADFQYQESNLRTKMNSMEKAHKETVEQLQAKNRELLKQVAALSKGKKFDKSGSILTSP [FAM76B]
solubility in G1/S (log2) (HeLa Kyoto [1]): -0.529 | melting temperature (HeLa Kyoto [2]; cell cycle stage: mitosis): 51.3 °C | solubility change mitosis (log2) (HeLa Kyoto [3]): 0.486 | thermal stability score (HeLa Kyoto [4]; [5]): -0.509 | thermal stability score (HeLa Kyoto [4]; cell cycle stage: mitosis): 0.107

MSSPQAPEDGQGCGDRGDPPGDLRSVLVTTVLNLEPLDEDLFRGRHYWVPAKRLFGGQIVGQALVAAAKSVSEDVHVHSLHCYFVRAGDPKLPVLYQVERTRTGSSFSVRSVKAVQHGKPIFICQASFQQAQPSPMQHQFSMPTVPPPEELLDCETLIDQYLRDPNLQKRYPLALNRIAAQEVPIEIKPVNPSPLSQLQRMEPKQMFWVRARGYIGEGDMKMHCCVAAYISDYAFLGTALLPHQWQHKVHFMVSLDHSMWFHAPFRADHWMLYECESPWAGGSRGLVHGRLWRQDGVLAVTCAQEGVIRVKPQVSESKL [ACOT8]
solubility in G1/S (log2) (HeLa Kyoto [1]): -0.0523 | melting temperature (HeLa Kyoto [2]; cell cycle stage: G1/S): 51.9 °C | melting temperature (HeLa Kyoto [2]; cell cycle stage: mitosis): 53.8 °C | solubility change mitosis (log2) (HeLa Kyoto [3]): -0.588 | thermal stability score (HeLa Kyoto [4]; [5]): 0.114 | thermal stability score (HeLa Kyoto [4]; cell cycle stage: mitosis): -0.515
